± gives the uncertainty stated by the source.
Assay: self-splicing fitness, log relative to wild type (ln ratio); higher = more splicing; Tetrahymena group I intron in knt gene, E. coli kanamycin selection, DiMSum; sequences stand for … in CUCUCU…GGAGGGAAAAGUUAUCAGGCAUGCACCUGGUAGCUAGUCUUUAAACCAAUAGAUUGCAUCGGUUUAAAAGGCAAGACCGUCAAAUUGCGGGAAAGGGGUCAACAGCCGUUCAGUACCAAGUCUCAGGGGAAACUUUGAGAUGGCCUUGCAAAGGGUAUGGUAAUAAGCUGACGGACAUGGUCCUAACCACGCAGCCAAGUCCUAAGUCAACAGAUCUUCUGUUGAUAUGGAUGCAGUUCACAGACUAAAUGUCGGUCGGGGAAGAUGUAUUCUUCUCAUAAGAUAUAGUCGGACCUCUCCUUAAUGGGAGCUAGCGGAUGAAGUGAUGCAACACUGGAGCCGCUGGGAACUAAUUUGUAUGCGAAAGUAUAUUGAUUAGUUUUGGAGUACUCGUGGUCG
Outline: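 Pooled colonies went to amplicon sequencing on an Illumina HiSeq 2500 after six replicate transformations. The plates were LB agar with 100 μg/mL carbenicillin, 50 μM IPTG and 0.2% rhamnose, with or without 25 μg/mL kanamycin, incubated overnight at 37°C or 30°C. The E. coli BL21(DE3) library had all eight P1ex-region intron nucleotides randomised, the intron placed in the knt kanamycin-resistance gene on pET-22b(+). DiMSum fitness is the error-weighted combination of replicate fold changes, kanamycin against none, normalised to wild type.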

| Sequence | self-splicing fitness (ln) (30 °C) | self-splicing fitness (ln) (37 °C) |
| --- | --- | --- |
| UAUCAGCAAUAUUACGUAGA | -0.562 ± 0.058 | -0.0988 ± 0.081 |
| UACGAGCAAUAUUACGUUUC | -2.65 ± 0.32 | -1.69 ± 0.24 |
| UCUCAGCAAUAUUACGUGAC | -2.02 ± 0.39 | -1.82 ± 0.37 |
| UCGCAGCAAUAUUACGCUAA | -1.96 ± 0.14 | -1.72 ± 0.15 |
| GCAUAGCAAUAUUACGGGGA | -3.23 ± 0.28 | -2.37 ± 0.19 |
| CACGAGCAAUAUUACGAAUC | -3.87 ± 0.35 | -2.93 ± 0.25 |
| GCCCAGCAAUAUUACGUCCA | -0.999 ± 0.09 | -1.18 ± 0.12 |
| GCUAAGCAAUAUUACGUUCA | -1.08 ± 0.07 | -0.54 ± 0.092 |
| AGCAAGCAAUAUUACGUAUA | -2.91 ± 0.15 | -1.85 ± 0.15 |
| GUGUAGCAAUAUUACGGAGU | -2.96 ± 0.17 | -2.61 ± 0.29 |
| AACCAGCAAUAUUACGCGAA | -1.11 ± 0.06 | -0.99 ± 0.076 |
| GGUGAGCAAUAUUACGUCGA | -3.18 ± 0.31 | -2.42 ± 0.28 |
| UGAUAGCAAUAUUACGUCGC |  | -2.13 ± 0.39 |
| AUCAAGCAAUAUUACGAUAG | -2.36 ± 0.35 | -1.63 ± 0.43 |
| UCCGAGCAAUAUUACGCUGC | -2.96 ± 0.24 | -1.84 ± 0.31 |
| UCUGAGCAAUAUUACGGAUG | -4.11 ± 0.31 | -2.14 ± 0.23 |
| UAGCAGCAAUAUUACGCUAU | -3.88 ± 0.23 | -3.49 ± 0.37 |
| UUUUAGCAAUAUUACGGUCA | -1.25 ± 0.17 | -0.069 ± 0.13 |
| AACAAGCAAUAUUACGCUCA | -0.608 ± 0.054 | -0.27 ± 0.071 |
| CUCUAGCAAUAUUACGAGCG | -2.79 ± 0.14 | -2.73 ± 0.16 |
| CCCUAGCAAUAUUACGUAGU | -3.63 ± 0.18 | -2.51 ± 0.17 |
| CUAGAGCAAUAUUACGCAUC | -3.92 ± 0.29 | -2.65 ± 0.45 |

| Sequence | self-splicing fitness (ln) (30 °C) | self-splicing fitness (ln) (37 °C) |
| --- | --- | --- |
| CCGCAGCAAUAUUACGCGAU | -3.44 ± 0.14 | -3.44 ± 0.21 |
| CUGCAGCAAUAUUACGUUGU | -4.62 ± 0.25 | -2.54 ± 0.2 |
| UACCAGCAAUAUUACGGGCA | -0.875 ± 0.054 | 0.469 ± 0.087 |
| ACGCAGCAAUAUUACGUGGA | -3.14 ± 0.14 | -2.37 ± 0.14 |
| CCCGAGCAAUAUUACGCCAA | -3.35 ± 0.31 | -2.12 ± 0.26 |
| UAUAAGCAAUAUUACGAGCG | -0.0858 ± 0.098 | -0.062 ± 0.1 |
| UAGGAGCAAUAUUACGUCAA |  | -2.27 ± 0.46 |
| AUCAAGCAAUAUUACGCGAU | -4.42 ± 0.33 | -3.08 ± 0.3 |
| UGUCAGCAAUAUUACGAAGA | -0.706 ± 0.11 | -0.132 ± 0.11 |
| AAAGAGCAAUAUUACGCUAU |  | -2.46 ± 0.21 |
| AAUUAGCAAUAUUACGACUG | -1.11 ± 0.1 | -0.677 ± 0.11 |
| CUAAAGCAAUAUUACGACAA | -2.42 ± 0.15 | -1.2 ± 0.19 |
| CACUAGCAAUAUUACGCUCC |  | -1.46 ± 0.2 |
| CCAUAGCAAUAUUACGCCCU | -2.8 ± 0.29 | -2.84 ± 0.39 |
| UCUUAGCAAUAUUACGUAAU | -5 ± 0.45 | -2.58 ± 0.2 |
| CCAUAGCAAUAUUACGGCUG | -3.05 ± 0.15 | -1.62 ± 0.14 |
| GCAAAGCAAUAUUACGAUUA | -0.0977 ± 0.11 | -1.13 ± 0.13 |
| UCGUAGCAAUAUUACGUACU | -2.04 ± 0.23 | -1.27 ± 0.17 |
| UGAUAGCAAUAUUACGCGGA | -2.4 ± 0.48 | -0.465 ± 0.29 |
| AAGGAGCAAUAUUACGUCCG | -1.79 ± 0.2 | -1.03 ± 0.28 |
| UACCAGCAAUAUUACGGACA | -0.227 ± 0.061 | 0.423 ± 0.076 |

— the supplement of paper PMC7877785
